Data: the RNAGym collection of RNA variant scans (doi:10.1101/gr.219683.116)

B1: mRNA-splicing (parent)
chain: AGUUGCUGCUGGGAGCUCCAGCACAGUGAAAUGGACAGAAGGGCAGAGCAA

Variants of: B1
Experiment: exon inclusion enrichment index; higher = more inclusion; WT1 exon 5 minigene, HEK293

| Variant | exon inclusion enrichment index |
| --- | --- |
| C6A U7A C9A U10A G38A A39C | 0.579 |
| G5C C6G U10C | 2.11 |
| C6A U7A C9A U10A G12U G13U | 0.144 |
| G5U G8U C9U A31U U32A | 0.00567 |
| G5A U7C G8A U10C U27A | 2.49 |
| G5C C6G U7C U10C A25C G26U | 4.06 |
| G5C C6G U7C G11C | 2.28 |
| A37U | 0.121 |
| C6A U7A C9A U10A A29U | 0.131 |
| G5A C6G U7G C9A C19A A20G | 0.00156 |
| C6A U7G G8C C9A U10A | 0.124 |
| G5C C6A U7C G8A U10A G15A C16A | 0.00997 |
| G5C C6G U7C U10A G11A | 2.25 |
| G5A G8U C9A | 0.187 |
| G5A G8U C9U | 0.166 |
| C6G U7A | 0.00764 |
| G5U G8U U10A | 0.444 |
| G5A C6G U7G C9A G12C G13U | 0.000686 |
| G5C C6U G8C C9U U10C G33U G34A | 0.262 |
| A29U | 0.0295 |
| G5A C6U U7A G8U C9A G26A | 0.141 |
| G5A C6G U7C G8A C9A | 0.0448 |
| G5C C6A U7C G8A U10A A47C G48U | 0.0993 |
| C6A U7A C9A U10A A40G | 0.737 |
| G5A C6G U7G C9A A40G | 0.00228 |

| Variant | exon inclusion enrichment index |
| --- | --- |
| C6A U7C C9A U10C G15U C16G | 3.06 |
| G5C C6A U7C G8A U10A G12U G13C | 0.0217 |
| G12C | 1.58 |
| G5A C6U U7A G8U C9A G13U | 0.00122 |
| C6A U7A C9A U10A C24G A25U | 0.778 |
| C44A | 0.507 |
| C6A U7C G8U C9G U10C | 1.91 |
| G5U G8U C9U G26U U27A | 0.0473 |
| C6A U7A C9A U10A C24A A25C | 2.22 |
| G5A C6U U7A G8U C9A A14G G15A | 0.0192 |
| G5C C6G U7C U10C A30C A31C | 3.86 |
| G5A C6U U7A G8U C9A A29U A30U | 0.00971 |
| G5U G8U C9U A47U G48U | 0.143 |
| G5C C6G U7C U10C A47G G48U | 0.733 |
| G5C C6G U7C U10C A47G G48C | 2.32 |
| U4A G5A C6A U7C C9A U10C | 2.23 |
| G5A U7C G8A U10C U17G C18G | 1.96 |
| U32C | 0.336 |
| G5C C6A U7C G8A U10A A25G G26A | 0.663 |
| G2U U3A C6A U7A C9A U10A | 1.45 |
| G5C C6U G8C C9U U10C A47C G48C | 1.78 |
| G5A C6G U7G C9A A39U A40C | 0.0022 |
| G5U G8U C9U C24G A25U | 0.208 |
| G5U G8U C9U C24G A25G | 0.0358 |
| G5C C6U U7G U10C | 0.82 |

| Variant | exon inclusion enrichment index |
| --- | --- |
| U3A U4C | 0.355 |
| G5C C6A U7C G8A U10A G21U C22U | 0.011 |
| G5U G8U C9U A25C G26A | 0.504 |
| G5U G8U C9U A25C G26C | 0.215 |
| U4G G5C C6A U7C C9A U10C | 2.46 |
| G5C C6G U7C U10C G11C G12U | 0.699 |
| G5C C6G U7C U10C A40C G41C | 3.53 |
| G5C C6A U7A C9A U10A | 0.906 |
| G5C C6G U7C U10C G11U G12A | 1.11 |
| G5C C6G U7C U10C C22U A23U | 2.76 |
| A14G G15A | 0.102 |
| C6A U7C C9A U10C G21C | 3.66 |
| U4G G5A C6U U7A G8U C9A | 0.156 |
| G5A C6U U7A G8U C9A G46C A47G | 0.159 |
| C6A U7A C9A U10A G43U C44U | 0.125 |
| C6A U7A C9A U10A G43U C44G | 0.238 |
| C6A U7A C9A U10A G15U C16G | 0.298 |
| C6A U7A C9A U10A U17C C18A | 0.476 |
| C6A C9A U10C | 2.01 |
| G5C C6A U7C G8A U10A A37C G38C | 0.176 |
| A40U G41C | 0.701 |
| G5C C6U U7G C9A | 1.42 |
| G5U G8U C9U A29U | 0.0318 |
| G5C C6U G8C C9U U10C A14U | 0.661 |
| C6A U7A C9A U10A A14C G15A | 0.473 |

| Variant | exon inclusion enrichment index |
| --- | --- |
| C6A U7A C9A U10A G28U A29U | 0.122 |
| G5A C6U U7A G8U | 0.171 |
| C6A U7C C9A U10C A25U G26U | 2.49 |
| G5C C6G U7C U10C C36U | 1.33 |
| G5U G8U C9U A35G C36A | 0.0301 |
| G5A U7C G8A U10C A39C A40G | 2.18 |
| G5C C6A U7C G8A U10A G15C C16A | 0.0594 |
| G5A U7C G8A U10C A30U A31G | 2.36 |
| G5C C6U G8C C9U U10C G46U A47U | 2.05 |
| C6A U7C C9A U10C C19U A20U | 2.13 |
| G5C C6G U7C U10C A35C C36U | 0.625 |
| G5A C6U U7A G8U C9A G46U A47C | 0.376 |
| G5C C6A U7C U10C | 3.16 |
| G5A C6U U7A G8U C9A G15U C16G | 0.0108 |
| G5C C6U G8C C9U U10C G15C | 2.54 |
| U3G G5A U7C G8A U10C | 0.68 |
| G5U G8U C9U C36A A37G | 0.0549 |
| A39U A40C | 0.276 |
| G5C C6G U7C U10C A40G G41C | 3.83 |
| G5A U7C G8A U10C A39G A40U | 0.283 |
| G5U G8U C9U G11U G12A | 0.00214 |
| C6A U7C C9A U10C A25C G26A | 4.93 |
| G5C C6A U7C G8A U10A A14G G15U | 0.0158 |
| G5A C6U U7A G8U C9A A39C A40U | 0.0208 |
| C36U A37G | 0.156 |

| Variant | exon inclusion enrichment index |
| --- | --- |
| G5A U7C G8A U10C G11U | 1.6 |
| C6A U7C C9A U10C A23U | 2.78 |
| G5C C6U G8C C9U U10C A40C G41A | 0.768 |
| G28C A29G | 0.405 |
| G5A C6G U7G C9A C24G A25G | 0.00108 |
| C6A U7A C9A U10A A23C C24U | 0.243 |
| G5C C6G U7C U10C G48U | 4.46 |
| C6U U7G C9A | 0.522 |
| U4C G5U C6U G8C C9U U10C | 1.08 |
| G5A U7C G8A U10C C19A A20C | 1.38 |
| G5A C6G U7G C9A G28A | 0.000725 |
| G5C C6U G8C C9U U10C C18A C19G | 0.289 |
| G5C C6A U7C G8A U10A A35G | 0.0247 |
| G5C C6A U7G G8C U10A | 0.0276 |
| C6A U7C C9A U10C A20G G21A | 3.72 |
| G41U | 0.16 |
| G5C C6G U7C U10C C19G A20G | 2.13 |
| G5A C6U U7A G8U C9A A31C U32G | 0.0628 |
| G5C C6G U7C G8A U10C | 3.31 |
| C6A U7C C9A U10C A35G C36G | 0.776 |
| G5A C6U U7A G8U C9A G15A C16A | 0.0139 |
| C6A U7C C9A U10C G15C | 4 |
| G5A C6G U7G C9A G13U A14G | 0.00052 |
| G5A U7C G8A U10C C36G | 1.55 |
| G5A U7C G8A U10C G15C C16U | 2.28 |

| Variant | exon inclusion enrichment index |
| --- | --- |
| G5U G8U C9U C22A A23G | 0.141 |
| G5A C6G U7G C9A G43C C44A | 0.0166 |
| G5U G8U C9U C36G A37U | 0.0469 |
| G33A G34U | 0.0122 |
| U3G U4G G5A U7C G8A U10C | 1.93 |
| G5C C6G U7C U10C A39C A40G | 3.52 |
| G5C C6G U7C U10C A39C A40U | 1.72 |
| G5C C6U G8C C9U U10C A47U G48A | 1.58 |
| C6A U7A C9A U10A A40C G41A | 0.218 |
| G5C C6A U7C G8A U10A G46U | 0.0644 |
| G5A U7C G8A U10C A30G A31C | 0.305 |
| C6A U7C C9A U10C G28C A29G | 3.91 |
| G5C C6U G8C C9U U10C U32G G33C | 1.97 |
| U3C G5A U7C G8A U10C | 1.28 |
| C6A U7C C9A U10C G38U | 1.44 |
| G34U A35U | 0.0144 |
| G5C C6G U7C G8A C9G U10C | 2.31 |
| C6A U7C C9A U10C A29G A30C | 2.23 |
| G5U G8U C9U U27G | 0.0266 |
| C6A U7C C9A U10C G34U A35C | 1.5 |
| G5A C6G U7G C9A G34C A35C | 0.00219 |
| A29G A30G | 0.114 |
| U7A | 0.394 |
